PMC5305259 (Molecular Biology of the Cell, 2017)

Target: T1, N-terminally tagged GFP cldn2 with the Linker domain between GFP and cldn2 (mouse, UniProt O88552 1-230)
T1 sequence: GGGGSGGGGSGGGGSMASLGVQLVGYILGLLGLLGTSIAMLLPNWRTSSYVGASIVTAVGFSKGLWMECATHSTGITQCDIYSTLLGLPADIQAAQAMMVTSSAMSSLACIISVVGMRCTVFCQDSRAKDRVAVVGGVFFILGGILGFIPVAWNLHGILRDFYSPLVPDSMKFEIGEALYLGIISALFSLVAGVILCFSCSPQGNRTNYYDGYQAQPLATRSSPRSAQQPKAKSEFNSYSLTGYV
Experiment: pull-down

B1: myc-tagged N-terminal half of ZO-1 containing the PDZ domains (ZNA; amino acids 1-887) (domain or fragment, UniProt Q07157 1-887, looked up)
chain: MSARAAAAKSTAMEETAIWEQHTVTLHRAPGFGFGIAISGGRDNPHFQSGETSIVISDVLKGGPAEGQLQENDRVAMVNGVSMDNVEHAFAVQQLRKSGKNAKITIRRKKKVQIPVSRPDPEPVSDNEEDSYDEEIHDPRSGRSGVVNRRSEKIWPRDRSASRERSLSPRSDRRSVASSQPAKPTKVTLVKSRKNEEYGLRLASHIFVKEISQDSLAARDGNIQEGDVVLKINGTVTENMSLTDAKTLIERSKGKLKMVVQRDERATLLNVPDLSDSIHSANASERDDISEIQSLASDHSGRSHDRPPRRSRSRSPDQRSEPSDHSRHSPQQPSNGSLRSRDEERISKPGAVSTPVKHADDHTPKTVEEVTVERNEKQTPSLPEPKPVYAQVGQPDVDLPVSPSDGVLPNSTHEDGILRPSMKLVKFRKGDSVGLRLAGGNDVGIFVAGVLEDSPAAKEGLEEGDQILRVNNVDFTNIIREEAVLFLLDLPKGEEVTILAQKKKDVYRRIVESDVGDSFYIRTHFEYEKESPYGLSFNKGEVFRVVDTLYNGKLGSWLAIRIGKNHKEVERGIIPNKNRAEQLASVQYTLPKTAGGDRADFWRFRGLRSSKRNLRKSREDLSAQPVQTKFPAYERVVLREAGFLRPVTIFGPIADVAREKLAREEPDIYQIAKSEPRDAGTDQRSSGIIRLHTIKQIIDQDKHALLDVTPNAVDRLNYAQWYPIVVFLNPDSKQGVKTMRMRLCPESRKSARKLYERSHKLRKNNHHLFTTTINLNSMNDGWYGALKEAIQQQQNQLVWVSEGKADGATSDDLDLHDDRLSYLSAPGSEYSMYSTDSRHTSDYEDTDTEGGAYTDQELDETLNDEVGTPPESAITRSSEPVREDSSG
fold binding against GFP cldn2 without the linker: ~3 fold
